Earlier results in publication PMC10293842 (Proceedings of the National Academy of Sciences of the …, 2023).

System: Omicron BA.1 and BA.2

B1: Adintrevimab (antibody, chains of the INN, looked up, V domains shown)
VH: EVQLVESGGGLVKPGGSLRLSCAASGFTFSSYYMNWVRQAPGKGLEWVSSISEDGYSTYYPDSLKGRFTISRDSAKNSLYLQMNSLRADDTAVYYCARDFSGHTAWAGTGFEYWGQGTLVTVSS
VL: QSVLTQPPSVSGAPGQRITISCTGSSSNIGAGYDVHWYQQLPGTAPKLLIYGSSSRNSGVPDRFSGSKSGTSASLAITGLQAEDEADYYCQSYDSSLSVLYTFGTGTKVTVL
- decrease in activity: 20 fold
